This experiment addresses 2,4,6-TCP 4-monooxygenase (TcpA) from Cupriavidus necator JMP134 (Cupriavidus necator JMP134). The experiment can be described thus: SEC-MALS; 100 μg TcpA on BioSep-SEC-S 2000 column, isocratic, 0.5 mL/min; multi-angle laser light scattering; tetramer. On the technique in general: Size exclusion chromatography separates by hydrodynamic size, large species first.

Stoichiometry N data for 1 substance are collected here from PMC3431827.

By stoichiometry N is commonly meant the number of molecules, sites or subunits per partner or assembly.

In the case of “2,4,6-TCP 4-monooxygenase (TcpA) from Cupriavidus necator JMP134 (enzyme)”, the stoichiometry N turned out to be 4.
